The values that follow come from patent publication US20110044985A1.

The target of the experiment is Aβ1-40. As to the kind of experiment: ELISA, nonbiotinylated peptide on plate. On the technique in general: An ELISA detects its analyte on a solid surface through an enzyme-linked reagent.
Chain of Aβ1-40 (peptide, as listed by the source): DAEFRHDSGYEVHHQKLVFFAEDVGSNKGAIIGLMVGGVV

B1: 6G heavy chain mutant variant 7D (N101C) (antibody, V domains shown)
VH: QVQLVQSGAEVKKPGASVKVSCKASGYTFTTYAIHWVRQAPGQGLEWMGFTSPYSGVSNYNQKFKGRVTMTRDTSTSTVYMELSSLRSEDTAVYYCARFDCYDRGYVRDYWGQGTLVTVS
VL: DIVMTQSPDSLAVSLGERATINCRASESVDNDRISFLNWYQQKPGQPPKLLIYAATKQGTGVPDRFSGSGSGTDFTLTISSLQAEDVAVYYCQQSKEFPWSFGGGTKVEIKR
In turn, B1 yielded an A450 ELISA of 0.23 A450.

B2: 6G heavy chain mutant variant 9E (N101R) (antibody, V domains shown)
VH: QVQLVQSGAEVKKPGASVKVSCKASGYTFTTYAIHWVRQAPGQGLEWMGFTSPYSGVSNYNQKFKGRVTMTRDTSTSTVYMELSSLRSEDTAVYYCARFDRYDRGYVRDYWGQGTLVTVS
VL: DIVMTQSPDSLAVSLGERATINCRASESVDNDRISFLNWYQQKPGQPPKLLIYAATKQGTGVPDRFSGSGSGTDFTLTISSLQAEDVAVYYCQQSKEFPWSFGGGTKVEIKR
In turn, B2 had an A450 ELISA of 0.22 A450.
